Experiment [1] has as its target Truncated recombinant LRRK2-G2019S (aa 970-2527) (human) (UniProt Q5S007).
For experiment [2], the target named is Truncated recombinant LRRK2 wild-type (aa 970-2527) (human) (UniProt Q5S007).

The values that follow come from publication PMC2806920.

“4E-BP (eukaryotic initiation factor 4E (eIF4E)-binding protein), His6-tagged 4E-BP1 (from UniProt Q13541 1-118) (natural protein)”: the Km for 4E-BP of its phosphorylation by LRRK2-G2019S (in vitro kinase assay, 33P incorporation, 12 nM LRRK2, 1.5-12 µM 4E-BP, Michaelis-Menten fit) in experiment [1] was 2.87 µM. In addition, the Km for 4E-BP of its phosphorylation by LRRK2 (in vitro kinase assay, 33P incorporation, 12 nM LRRK2, 1.5-12 µM 4E-BP, Michaelis-Menten fit) in experiment [2] was determined as 2.69 µM.
